From article PMC9646525, “Cryo-EM structure of the SEA complex” (Nature, 2022)

Molecular target: the molecule itself
Assay: cryo-EM structure; endogenous SEAC purified from yeast via Sea4-TAP (IgG Dynabeads, TEV elution in 20 mM HEPES-NaOH pH 7.4, 300 mM NaCl, 2 mM DTT), on graphene-oxide-coated grids

B1: Sea4-TAP (natural protein, UniProt P38164 1-1038, looked up)
chain: MGLIKKVTHWSYDNLIDYLSVNPTRDEVTHYKVDPENESDESIIKLHTVKDFGSITCLDYSESEIGMIGVGEKNGYLRIFNISGQNSSSPASHAPVGLNANNETSMTNASGGKAAQAENIVGSVSNLKDTQGYPVSETNYDIRVRAKKQRCINSLGINTNGLIAMGLDRNKHDSSLQIWDMNYHDDSHETINPMFSYCTNESIVSLKFLNDTSVLAASTKFLKEIDVRSPNPIYQHPTRLTYDIKLNPFNDWQFSTYGDDGTLAIWDRRKLSDQASLGDLNVASPLLTFEKLVGSGAASRKYMNSCFRWSCVRNNEFATLHRGDTIKRWRLGYYCDSNRDIAADDDNEMNIENLFVSSVHDTNTMYDRVATFDYIPRSNNGTSLICMRQSGTIYRMPISEVCSKAILNNRNSLLLSNFENTEIDEIRVNNEHEKSNLENVKTILKNLSFEDLDVSEDYFPSGHDEPNNEIEYSELSEEENEGSNDVLDSKRGFELFWKPEKLLEKDISVIMRTRASLGYGLDPMNTVEMIDSSKNLQNNAYIRNTWRWIAIAKASVDDGTMVSGDLDLGYEGVIGIWNGINGISNQDRYRQETILSDKQLNKEMEKIIKLRRKNRDRNSPIANAAGSPKYVQRRLCLIISGWDLSRSDYEDKYNIIMKNGHYEKAAAWAVFFGDIPKAVEILGSAKKERLRLIATAIAGYLAYKDLPGNNAWRQQCRKMSSELDDPYLRVIFAFIADNDWWDILYEPAISLRERLGVALRFLNDTDLTTFLDRTSSTVIENGELEGLILTGITPNGIDLLQSYVNKTSDVQSAALISIFGSPRYFRDQRVDEWIQTYRDMLKSWELFSMRARFDVLRSKLSRTKTGVLTADIKPRQIYIQCQNCKQNINTPRTSSPSSAVSTSAGNYKNGEAYRRNNADYKKFNTGSSEAQAADEKPRHKYCCPHCGSSFPRCAICLMPLGTSNLPFVINGTQSRDPMQTEDSQDGANRELVSRKLKLNEWFSFCLSCNHGMHAGHAEEWFDRHNVCPTPGCTCQCNK
notes: Sea4, S. cerevisiae, endogenous subunit of the SEAC (SEACAT, core), TAP-tagged; Captured by the TAP tag on IgG beads; the complex was released with TEV protease before SDS-PAGE and cryo-EM; Written 'Sea4-TAP'; Four copies in the SEAC; source: endogenous, yeast cells expressing Sea4-TAP; in lysate, purified on IgG-coupled Dynabeads and eluted with TEV protease
- stoichiometry N: 4
